Data from patent US20250361288A1 (Gilead, published 2025).
Where a chain is given by its changes, count along the chain named. In names and notes the source's numbering stands.

T1: human HVEM extracellular domain fused with an Fc fragment at the C-terminus (human, UniProt Q92956 39-202)
T1 construct: extracellular domain; Bought; also called hHVEM; not shown: Fc fragment at the C-terminus
T1 sequence (looked up): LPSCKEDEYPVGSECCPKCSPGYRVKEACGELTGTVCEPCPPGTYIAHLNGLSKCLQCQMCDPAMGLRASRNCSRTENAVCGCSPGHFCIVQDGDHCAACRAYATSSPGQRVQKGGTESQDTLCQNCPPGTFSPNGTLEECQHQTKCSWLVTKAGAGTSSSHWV

T2: mouse HVEM extracellular domain fused with an Fc fragment at the C-terminus (mouse, UniProt Q80WM9 39-206, limits assumed)
T2 construct: extracellular domain; Bought; also called mHVEM; not shown: Fc fragment at the C-terminus
T2 sequence (looked up): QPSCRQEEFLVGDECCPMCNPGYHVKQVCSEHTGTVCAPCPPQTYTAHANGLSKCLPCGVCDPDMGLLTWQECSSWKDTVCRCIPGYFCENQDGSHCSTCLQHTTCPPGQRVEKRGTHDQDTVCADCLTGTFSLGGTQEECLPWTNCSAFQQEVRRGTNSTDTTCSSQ

T3: recombinant DcR3 protein (human DcR3 residues 33-300 linked to the N-terminal of rabbit Fc) (human, UniProt O95407 33-300)
T3 construct: range 33-300; Expressed in Expi293F, purified on protein A; not shown: rabbit Fc
T3 sequence (looked up): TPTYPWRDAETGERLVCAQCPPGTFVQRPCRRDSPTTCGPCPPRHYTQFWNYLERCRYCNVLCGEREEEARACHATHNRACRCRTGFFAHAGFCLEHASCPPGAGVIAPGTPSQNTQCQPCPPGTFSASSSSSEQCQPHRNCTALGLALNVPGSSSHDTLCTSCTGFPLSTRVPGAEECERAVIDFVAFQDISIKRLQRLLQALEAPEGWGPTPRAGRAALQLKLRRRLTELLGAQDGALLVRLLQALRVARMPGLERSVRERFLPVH

B1: LIGHT-58 (ligand)
chain: DGPAGSWEQLIQERRSHEVNPAAHLTGANSSLTGSGGPLLWETQLGLAFLRGLSYHDGALVVTKAGYYYIYSKVQLGGVGCPLGLAGGITHGLYKRTPRYPEELELLVSQQSPCGRATSSSRVWWDSSFLGGVVHLEAGEKVVVRVSDERLVRLRDGTRSYFGAFMV
notes: Printed mutations: S160G, T161G, L220S; Soluble protein carries an N-terminal His tag
B2: LIGHT-60 (ligand)
chain: B1 chain with E149S
notes: Printed mutations: S160G, T161G, L220S, E222S; Soluble protein carries an N-terminal His tag
B3: LIGHT-61 (ligand)
chain: B1 chain with G88P, E149S
notes: Printed mutations: S160G, T161P, L220S, E222S; Soluble protein carries an N-terminal His tag
B4: LIGHT-87 (ligand)
chain: B1 chain with G77R, G87R, G88T, W125Q, R155L
notes: Printed mutations: G150R, S160R, W198Q, L220S, R228L; Soluble protein carries an N-terminal His tag
B5: LIGHT-88 (ligand)
chain: B1 chain with A22T, G77R, G87R, G88T, P101L, W125Q, R155L
notes: Printed mutations: A95T, G150R, S160R, P174L, W198Q, L220S, R228L; Soluble protein carries an N-terminal His tag
B6: LIGHT-89 (ligand)
chain: B1 chain with A22T, G77R, G87R, G88T, P101L, W125Q, S147L, R155L
notes: Soluble protein carries an N-terminal His tag
B7: LIGHT-10 (ligand)
chain: B1 chain with G77S, G87S, G88P
notes: Printed mutations: G150S, T161P, L220S; Soluble protein carries an N-terminal His tag
B8: LIGHT-15 (ligand)
chain: B1 chain with Q44E, G87S, G88T, E102K, K141E, S147L, L154T
notes: Printed mutations: Q117E, E175K, K214E, L227T; Soluble protein carries an N-terminal His tag
B9: LIGHT-16 (ligand)
chain: B1 chain with Q44H, L85M, G87S, G88T, E140D, S147L
notes: Printed mutations: Q117H, L158M, E213D; Soluble protein carries an N-terminal His tag
B10: LIGHT-17 (ligand)
chain: B1 chain with Q44N, G87S, G88T, H135Y, S147L
notes: Printed mutations: H208Y, Q117N; Soluble protein carries an N-terminal His tag
B11: LIGHT-20 (ligand)
chain: B1 chain with G87A, G88T, E149D
notes: Printed mutations: S160A, L220S, E222D; Soluble protein carries an N-terminal His tag
B12: LIGHT-21 (ligand)
chain: B1 chain with G88P, S147T
notes: Printed mutations: S160G, T161P, L220T; Soluble protein carries an N-terminal His tag
B13: LIGHT-22 (ligand)
chain: B1 chain with G88S
notes: Printed mutations: S160G, T161S, L220S; Soluble protein carries an N-terminal His tag

The binders below were run against T1, human HVEM extracellular domain fused … (assay: ELISA on coated target-Fc).
Procedure: (§1) Nunc MaxiSorp 96-well plates (Thermofisher) were coated with target proteins (1 μg/ml), and then blocked with 2% BSA-PBS buffer for one hour. Serial dilutions of the LIGHT muteins were added with a maximum concentration of 200 ng/ml. The plates were incubated for one hour, washed four times with PBST, and then incubated with mouse anti-His tag antibody (#105327, Sino Biological) for 1 hour. The plates were further incubated with HRP-conjugated goat anti-mouse secondary antibody (#SSA006, Sino Biological) before being washed three times with PBST and treated with TMB substrate (#34029, ThermoFisher). The plates were read at 450 nm on a SpectraMax M5 microplate reader (Molecule Devices). The ELISA results were analyzed using GraphPad Prism 9.0 software and the EC50s (half maximal effective concentration) were summarized in Table 5-1 and Table 5-2.

Row | Binder | EC50
1 | B1 | 0.432 nM
2 | B2 | 0.639 nM
3 | B3 | 0.46 nM
4 | B4 | 6.68 nM

The binders below were run against T4, mouse LTβR extracellular domain fused with an Fc fragment at the C-terminus (mouse, UniProt P50284 31-223) (assay: ELISA on coated target-Fc).
T4 construct: extracellular domain; Bought; also called mLTβR; not shown: Fc fragment at the C-terminus
T4 sequence (P50284 31-223): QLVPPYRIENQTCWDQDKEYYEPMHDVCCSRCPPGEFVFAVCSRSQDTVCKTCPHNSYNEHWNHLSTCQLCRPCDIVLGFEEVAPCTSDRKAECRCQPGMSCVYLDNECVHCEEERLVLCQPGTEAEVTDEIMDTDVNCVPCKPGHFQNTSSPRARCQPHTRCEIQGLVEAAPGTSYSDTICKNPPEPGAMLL
Procedure: as §1

Row | Binder | EC50
5 | B1 | 0.273 nM
6 | B2 | 0.63 nM
7 | B3 | 0.498 nM
8 | B4 | 0.315 nM
9 | B5 | 0.262 nM
10 | B6 | 0.503 nM

What follows are binders tested against T5, human LTβR extracellular domain fused with an Fc fragment at the C-terminus (human, UniProt P36941 31-227) (assay: ELISA on coated target-Fc).
T5 construct: extracellular domain; Bought; also called hLTβR; not shown: Fc fragment at the C-terminus
T5 sequence (P36941 31-227): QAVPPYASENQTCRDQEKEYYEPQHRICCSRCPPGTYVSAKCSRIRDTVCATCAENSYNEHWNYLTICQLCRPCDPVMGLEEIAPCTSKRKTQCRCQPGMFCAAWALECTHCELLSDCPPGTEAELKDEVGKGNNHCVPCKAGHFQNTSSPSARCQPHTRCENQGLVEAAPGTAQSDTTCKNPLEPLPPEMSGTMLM
Procedure: as §1

Row | Binder | EC50
11 | B1 | 0.309 nM
12 | B2 | 0.919 nM
13 | B3 | 0.482 nM
14 | B4 | 0.413 nM
15 | B5 | 0.264 nM
16 | B6 | 0.625 nM

Each binder was assayed against T2, mouse HVEM extracellular domain fused … (assay: phage ELISA).
Procedure, shortened: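 Supernatants from fourth-round clones rescued with helper phage were applied to plates coated with 1 μg/ml target for 1 h at room temperature. Bound phage detected with HRP anti-M13 and TMB at OD450; clones were called positive when the target/BSA ratio was >3.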

Row | Binder | binding result
17 | B7 | binds
18 | B8 | binds
19 | B9 | binds
20 | B10 | binds
21 | B11 | binds
22 | B12 | binds
23 | B13 | binds

Biological target: T1, human HVEM extracellular domain fused …
Assay: ELISA on coated target-Fc
Remark: another data set of the same source
Procedure: as §1

Row | Binder | EC50
24 | B7 | 0.0467 mg/L
25 | B8 | 0.0597 mg/L
26 | B9 | 0.0738 mg/L
27 | B10 | 0.0511 mg/L
28 | B11 | 0.0496 mg/L
29 | B12 | 0.0422 mg/L
30 | B13 | 0.0471 mg/L

Biological target: T4, mouse LTβR extracellular domain fused …
Assay: ELISA on coated target-Fc
Remark: another data set of the same source
Procedure: as §1

Row | Binder | EC50 | binding result
31 | B7 | 0.0804 mg/L | 
32 | B8 | 0.139 mg/L | 
33 | B9 |  | binds
34 | B10 | 0.0442 mg/L | 
35 | B11 |  | binds
36 | B12 | 0.134 mg/L | 
37 | B13 | 0.0624 mg/L | 

Biological target: T5, human LTβR extracellular domain fused …
Assay: ELISA on coated target-Fc
Remark: another data set of the same source
Procedure: as §1

Row | Binder | EC50
38 | B7 | 0.0441 mg/L
39 | B8 | 0.0748 mg/L
40 | B9 | 0.16 mg/L
41 | B10 | 0.0805 mg/L
42 | B11 | 0.0521 mg/L
43 | B12 | 0.0715 mg/L
44 | B13 | 0.0686 mg/L

What follows are binders tested against T3, recombinant DcR3 protein (human DcR3 …) (assay: ELISA on coated DcR3-rabbit Fc).
Procedure: To test whether the muteins can bind to DcR3, the recombinant DcR3 protein was generated by linking human DcR3 residues 33-300 to the N-terminal of rabbit Fc. The recombinant proteins were expressed in Expi293F and affinity-purified using protein A beads, as previously described. Human DcR3 proteins were immobilized onto maxiSorp 96-well ELISA plates (Thermo Fisher) at a concentration of 0.5 μg/mL and then blocked with 2% BSA-PBS buffer for one hour. The LIGHT variants were added to the plates at various dilutions, with a maximum concentration of 10 nM. The plates were incubated for one hour, washed four times with PBST, and then incubated with mouse anti-His tag antibody (#105327, Sino Biological) for 1 hour. The plates were further incubated with HRP-conjugated goat anti-mouse secondary antibody (#SSA006, Sino Biological) before being washed three times with PBST and treated with TMB substrate (#34029, ThermoFisher). The plates were read at 450 nm on a SpectraMax M5 microplate reader (Molecule Devices). The ELISA results were analyzed using GraphPad Prism 9.0 software and the EC50s (half maximal effective concentration) were summarized in Table 5-2.

Row | Binder | EC50
45 | B1 | 0.184 nM
46 | B2 | 0.311 nM
47 | B3 | 0.213 nM
